T1: TAP-tagged Kap120 (S. cerevisiae, UniProt Q02932 1-1032)
T1 sequence (looked up): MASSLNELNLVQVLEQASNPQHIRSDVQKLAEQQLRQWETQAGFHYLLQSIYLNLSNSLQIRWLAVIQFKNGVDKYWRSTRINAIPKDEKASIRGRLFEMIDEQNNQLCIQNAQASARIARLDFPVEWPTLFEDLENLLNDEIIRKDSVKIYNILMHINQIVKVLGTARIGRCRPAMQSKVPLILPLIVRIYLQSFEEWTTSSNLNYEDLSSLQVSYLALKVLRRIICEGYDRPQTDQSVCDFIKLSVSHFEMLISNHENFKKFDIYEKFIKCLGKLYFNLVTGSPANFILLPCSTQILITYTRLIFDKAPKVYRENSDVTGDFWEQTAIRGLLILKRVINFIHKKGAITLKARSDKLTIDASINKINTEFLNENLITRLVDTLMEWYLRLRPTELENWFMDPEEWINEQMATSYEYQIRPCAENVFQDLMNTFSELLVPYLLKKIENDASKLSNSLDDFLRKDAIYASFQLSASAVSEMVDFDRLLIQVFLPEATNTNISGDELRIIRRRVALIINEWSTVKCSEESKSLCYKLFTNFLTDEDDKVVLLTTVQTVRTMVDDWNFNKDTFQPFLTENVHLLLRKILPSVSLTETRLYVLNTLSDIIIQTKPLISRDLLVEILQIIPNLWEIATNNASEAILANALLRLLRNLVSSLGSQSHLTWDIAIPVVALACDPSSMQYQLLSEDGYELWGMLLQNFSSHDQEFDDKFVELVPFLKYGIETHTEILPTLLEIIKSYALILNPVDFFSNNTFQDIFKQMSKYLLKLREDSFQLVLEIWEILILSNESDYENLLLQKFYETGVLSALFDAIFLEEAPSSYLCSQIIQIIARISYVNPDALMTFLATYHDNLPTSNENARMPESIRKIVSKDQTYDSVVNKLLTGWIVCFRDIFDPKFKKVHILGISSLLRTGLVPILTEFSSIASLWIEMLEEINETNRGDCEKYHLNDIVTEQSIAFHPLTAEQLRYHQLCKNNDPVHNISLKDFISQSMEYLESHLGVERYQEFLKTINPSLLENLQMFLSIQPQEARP

B1: Tail-GFP (Xrn1 Tail, amino acids 351-521, fused to GFP) (domain or fragment, S. cerevisiae, UniProt P22147 351-521, looked up)
chain: EKDDIDVEWFNKQLENISLEGERKRQRVGKKLLVKQQKKLIGSIKPWLMEQLQEKLSPDLPDEEIPTLELPKDLDMKDHLEFLKEFAFDLGLFITHSKSKGSYSLKMDLDSINPDETEEEFQNRVNSIRKTIKKYQNAIIVEDKEELETEKTIYNERFERWKHEYYHDKLK
B2: recombinant Kap120-6xHis (natural protein, S. cerevisiae, UniProt Q02932 1-1032, looked up)
chain: T1 sequence (looked up)
B3: Dhh1 (natural protein, S. cerevisiae (endogenous in yeast), UniProt P39517 1-506, looked up)
chain: MGSINNNFNTNNNSNTDLDRDWKTALNIPKKDTRPQTDDVLNTKGNTFEDFYLKRELLMGIFEAGFEKPSPIQEEAIPVAITGRDILARAKNGTGKTAAFVIPTLEKVKPKLNKIQALIMVPTRELALQTSQVVRTLGKHCGISCMVTTGGTNLRDDILRLNETVHILVGTPGRVLDLASRKVADLSDCSLFIMDEADKMLSRDFKTIIEQILSFLPPTHQSLLFSATFPLTVKEFMVKHLHKPYEINLMEELTLKGITQYYAFVEERQKLHCLNTLFSKLQINQAIIFCNSTNRVELLAKKITDLGYSCYYSHARMKQQERNKVFHEFRQGKVRTLVCSDLLTRGIDIQAVNVVINFDFPKTAETYLHRIGRSGRFGHLGLAINLINWNDRFNLYKIEQELGTEIAAIPATIDKSLYVAENDETVPVPFPIEQQSYHQQAIPQQQLPSQQQFAIPPQQHHPQFMVPPSHQQQQAYPPPQMPSQQGYPPQQEHFMAMPPGQSQPQY
B4: Pat1 (natural protein, S. cerevisiae (endogenous in yeast), UniProt P25644 1-796, looked up)
chain: MSFFGLENSGNARDGPLDFEESYKGYGEHELEENDYLNDETFGDNVQVGTDFDFGNPHSSGSSGNAIGGNGVGATARSYVAATAEGISGPRTDGTAAAGPLDLKPMESLWSTAPPPAMAPSPQSTMAPAPAPQQMAPLQPILSMQDLERQQRQMQQQFMNFHAMGHPQGLPQGPPQQQFPMQPASGQPGPSQFAPPPPPPGVNVNMNQMPMGPVQVPVQASPSPIGMSNTPSPGPVVGATKMPLQSGRRSKRDLSPEEQRRLQIRHAKVEKILKYSGLMTPRDKDFITRYQLSQIVTEDPYNEDFYFQVYKIIQRGGITSESNKGLIARAYLEHSGHRLGGRYKRTDIALQRMQSQVEKAVTVAKERPSKLKDQQAAAGNSSQDNKQANTVLGKISSTLNSKNPRRQLQIPRQQPSDPDALKDVTDSLTNVDLASSGSSSTGSSAAAVASKQRRRSSYAFNNGNGATNLNKSGGKKFILELIETVYEEILDLEANLRNGQQTDSTAMWEALHIDDSSYDVNPFISMLSFDKGIKIMPRIFNFLDKQQKLKILQKIFNELSHLQIIILSSYKTTPKPTLTQLKKVDLFQMIILKIIVSFLSNNSNFIEIMGLLLQLIRNNNVSFLTTSKIGLNLITILISRAALIKQDSSRSNILSSPEISTWNEIYDKLFTSLESKIQLIFPPREYNDHIMRLQNDKFMDEAYIWQFLASLALSGKLNHQRIIIDEVRDEIFATINEAETLQKKEKELSVLPQRSQELDTELKSIIYNKEKLYQDLNLFLNVMGLVYRDGEISELK

Key:
recombinant Kap120-6xHis = molecular target: B2; experiment: pull-down
[1] = molecular target: FLAG-tagged Xrn1 (wild type) (S. cerevisiae, UniProt P22147 1-1528); experiment: pull-down
Chain of FLAG-tagged Xrn1 (wild type) (P22147 whole entry): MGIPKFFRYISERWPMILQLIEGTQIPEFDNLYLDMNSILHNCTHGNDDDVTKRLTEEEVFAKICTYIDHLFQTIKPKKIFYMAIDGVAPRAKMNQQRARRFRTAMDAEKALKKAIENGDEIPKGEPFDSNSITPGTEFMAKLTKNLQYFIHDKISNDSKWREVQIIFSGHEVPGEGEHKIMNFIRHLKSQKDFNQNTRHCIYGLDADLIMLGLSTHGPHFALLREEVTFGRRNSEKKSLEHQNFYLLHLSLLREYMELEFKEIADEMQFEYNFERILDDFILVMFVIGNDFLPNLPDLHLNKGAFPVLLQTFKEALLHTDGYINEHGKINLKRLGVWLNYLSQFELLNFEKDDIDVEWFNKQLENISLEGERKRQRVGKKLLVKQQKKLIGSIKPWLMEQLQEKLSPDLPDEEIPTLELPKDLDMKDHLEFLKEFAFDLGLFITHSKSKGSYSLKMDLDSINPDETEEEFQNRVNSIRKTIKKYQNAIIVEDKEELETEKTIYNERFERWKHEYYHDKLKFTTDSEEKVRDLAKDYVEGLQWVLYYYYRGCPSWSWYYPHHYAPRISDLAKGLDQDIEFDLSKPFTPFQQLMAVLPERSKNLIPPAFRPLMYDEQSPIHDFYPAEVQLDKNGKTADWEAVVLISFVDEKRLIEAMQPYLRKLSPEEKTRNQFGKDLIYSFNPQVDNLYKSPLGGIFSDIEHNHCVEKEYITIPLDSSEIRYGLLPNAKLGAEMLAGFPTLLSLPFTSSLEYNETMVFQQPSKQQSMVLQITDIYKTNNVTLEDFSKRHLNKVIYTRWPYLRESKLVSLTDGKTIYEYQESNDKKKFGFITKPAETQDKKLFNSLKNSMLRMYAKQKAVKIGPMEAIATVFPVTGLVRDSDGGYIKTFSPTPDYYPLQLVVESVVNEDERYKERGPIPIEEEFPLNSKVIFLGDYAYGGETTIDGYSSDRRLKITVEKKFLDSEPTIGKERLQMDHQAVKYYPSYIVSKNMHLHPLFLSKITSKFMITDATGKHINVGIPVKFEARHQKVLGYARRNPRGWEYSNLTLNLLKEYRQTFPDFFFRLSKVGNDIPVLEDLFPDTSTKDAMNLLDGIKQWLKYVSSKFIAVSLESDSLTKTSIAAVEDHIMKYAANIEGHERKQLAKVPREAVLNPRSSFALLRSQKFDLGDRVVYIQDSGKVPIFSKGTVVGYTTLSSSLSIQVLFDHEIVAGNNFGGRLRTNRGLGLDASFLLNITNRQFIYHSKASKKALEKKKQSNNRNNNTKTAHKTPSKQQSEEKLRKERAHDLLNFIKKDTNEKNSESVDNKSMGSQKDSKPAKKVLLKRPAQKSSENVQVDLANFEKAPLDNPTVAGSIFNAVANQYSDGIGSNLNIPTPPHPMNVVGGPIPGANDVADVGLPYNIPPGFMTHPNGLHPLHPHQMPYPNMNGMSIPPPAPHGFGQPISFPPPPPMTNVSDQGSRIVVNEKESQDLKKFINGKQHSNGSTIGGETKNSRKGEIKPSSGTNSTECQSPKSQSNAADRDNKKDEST

TAP-tagged Kap120 = molecular target: T1, TAP-tagged Kap120; experiment: co-IP

## FLAG-tagged Xrn1^ΔNLS1/2 (from UniProt P22147 1-1528) (enzyme)
Recombinant Kap120-6xHis
  fold weaker than Xrn1^WT-Kap120: 4.5 fold

## B1
Recombinant Kap120-6xHis
  binding result: binds

## B2
[1]
  binding result: binds

## B3
TAP-tagged Kap120
  fold reduction of the co-IP in Xrn1^ΔNLS1/2 cells against WT cells: ~5 fold

## B4
TAP-tagged Kap120
  fold reduction of the co-IP in Xrn1^ΔNLS1/2 cells against WT cells: ~5 fold

— article doi:10.1101/2021.04.01.437949 (bioRxiv, 2021)
